Assay results reported in patent publication US20210340245A1 (Janssen / Centocor, published 2021).

Legend:
recombinant human TNFα [1] = biological target: T1, recombinant human TNFα (human, UniProt P01375 77-233, 125I label in the receptor-blocking assay); assay: competition radioligand assay: hybridoma supernatant preincubated with 125I-TNFα (5 ng/ml); binding of TNFα to plate-coated p55-sf2 read as cpm bound
T1 construct: also called huTNFα; tumor necrosis factor alpha

recombinant human TNFα [2] = biological target: T1, recombinant human TNFα; assay: cell-based or functional assay
recombinant human TNFα [3] = biological target: T1, recombinant human TNFα; assay: inhibition of 125I-TNFα binding to plate-coated p55-sf2
Experimental: 50:1 of p55-sf2 at 0.5 :g/ml in PBS was added to Optiplates to coat the wells during a one-hour incubation at 37° C. Serial dilutions of the eight TNV cell supernatants were prepared in 96-well round-bottom plates using PBS/0.1% BSA as diluent. […] The mixture was preincubated for one hour at RT. […] After 2 hrs at RT, Optiplates were washed three times with PBS-Tween. 100 :l of Microscint-20 was added and the cpm bound determined using the TopCount gamma counter.
The concentrations of the TNV mAbs in their respective cell supernatants were first determined by standard ELISA analysis for human IgG.

B1: GenTNV148.26.12 (antibody, V domains shown)
VH: QVQLVESGGGVVQPGRSLRLSCAASGFIFSSYAMHWVRQAPGNGLEWVAFMSYDGSNKKYADSVKGRFTISRDNPKNTLYLQMNSLRAEDTAVYYCARDRGIAAGGNYYYYGMDVWGQGTTVTVSS
VL: EIVLTQSPATLSLSPGERATLSCRASQSVYSYLAWYQQKPGQAPRLLIYDASNRATGIPARFSGSGSGTDFTLTISSLEPEDFAVYYCQQRSNWPPFTFGPGTKVDIKR
IC50 (read off the curve) (recombinant human TNFα [1]): ~4 ng/mL
neutralizing TNFα bioactivity (recombinant human TNFα [2]): 4 fold
fold better at blocking TNF binding than TNV118 and TNV14 (recombinant human TNFα [3]): ~4 fold

B2: GenTNV86.14.34 (antibody, human IgG1, V domains shown)
VH: QVQLVESGGGVVQPGRSLRLSCAASGFIFSSYAMHWVRQAPGNGLEWVAFMSYDGSNKKYADSVKGRFTISRDNPKNTLYLQMNSLRAEDTAVYYCARDRGIAAGGNYYYYGMDVWGQGTTVTVSS
VL: EIVLTQSPATLSLSPGERATLSCRASQSVYSYLAWYQQKPGQAPRLLIYDASNRATGIPARFSGSGSGTDFTLTISSLEPEDFAVYYCQQRSNWPPFTFGPGTKVDIK
notes: Totally human IgG1 kappa, hybridoma-derived, tested in cell supernatant; Variable regions identical to TNV148; also called C417A (cell line code)
fold better at blocking TNF binding than TNV118 and TNV14 (recombinant human TNFα [3]): ~4 fold
